B1: loop 3 chimeric microplasminogen (protein)
chain: APSFDCGKPQVEPKKCPGRVVGGCVAHPHSWPWQVSLRLNGAHFCGGTLISPEWVLTAAHCLEKSPRPSSYKVILGAHQEVNLEPHVQEIEVSRLFLEPTRKDIALLKLSSPAVITDKVIPACLPSPNYVVADRTECFITGWGETQGTFGAGLLKEAQLPVIENKVCNRYEFLNGRVQSTELCAGHLAGGTDSCQGDSGGPLVCFEKDKYILQGVTSWGLGCARPNKPGVYVRVSRFVTWIEGVMRNN
B2: loop 5 chimeric microplasminogen (protein)
chain: APSFDCGKPQVEPKKCPGRVVGGCVAHPHSWPWQVSLRTRFGMHFCGGTLISPEWVLTAAHCLEDAADGKVKVILGAHQEVNLEPHVQEIEVSRLFLEPTRKDIALLKLSSPAVITDKVIPACLPSPNYVVADRTECFITGWGETQGTFGAGLLKEAQLPVIENKVCNRYEFLNGRVQSTELCAGHLAGGTDSCQGDSGGPLVCFEKDKYILQGVTSWGLGCARPNKPGVYVRVSRFVTWIEGVMRNN
B3: loop 7 chimeric microplasminogen (protein)
chain: APSFDCGKPQVEPKKCPGRVVGGCVAHPHSWPWQVSLRTRFGMHFCGGTLISPEWVLTAAHCLEKSPRPSSYKVILGAHQEVNLEPHVQEIEVSRLFLHPDSQPDTIDHDIALLKLSSPAVITDKVIPACLPSPNYVVADRTECFITGWGETQGTFGAGLLKEAQLPVIENKVCNRYEFLNGRVQSTELCAGHLAGGTDSCQGDSGGPLVCFEKDKYILQGVTSWGLGCARPNKPGVYVRVSRFVTWIEGVMRNN

Target: T1, streptokinase, P00779
T1 chain: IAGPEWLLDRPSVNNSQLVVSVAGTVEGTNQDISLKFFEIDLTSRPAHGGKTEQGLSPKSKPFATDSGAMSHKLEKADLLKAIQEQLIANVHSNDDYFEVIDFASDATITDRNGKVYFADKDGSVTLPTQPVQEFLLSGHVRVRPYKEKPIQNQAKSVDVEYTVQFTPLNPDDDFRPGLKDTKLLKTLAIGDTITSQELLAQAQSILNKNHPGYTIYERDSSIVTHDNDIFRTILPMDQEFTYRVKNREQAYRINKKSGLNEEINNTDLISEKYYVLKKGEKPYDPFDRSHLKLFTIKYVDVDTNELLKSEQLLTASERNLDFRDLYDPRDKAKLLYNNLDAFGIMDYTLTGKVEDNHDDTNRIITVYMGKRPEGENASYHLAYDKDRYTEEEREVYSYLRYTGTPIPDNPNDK

Protein | activation of microplasminogen by streptokinase (S2251 cleavage, A405)
B1 | all three loop mutants were not efficiently activated by the bacterial plasminogen activator streptokinase
B2 | all three loop mutants were not efficiently activated by the bacterial plasminogen activator streptokinase
B3 | all three loop mutants were not efficiently activated by the bacterial plasminogen activator streptokinase

From US20040235115A1
